Source: patent US20160194391A1 (AstraZeneca / MedImmune, published 2016)
Where a chain is given by its changes, count along the chain named. Several values for one entry are separate records, joined by “and”; a condition that tells them apart may be missing. Equal values may be shown once. Each block holds one binder with its values, some of them ahead of it.

Experiments:
human IL-12 = biological target: T1, human IL-12 (human, UniProt P29459 23-219; P29460 23-328); assay: cell-based or functional assay
T1 sequence (looked up) 1: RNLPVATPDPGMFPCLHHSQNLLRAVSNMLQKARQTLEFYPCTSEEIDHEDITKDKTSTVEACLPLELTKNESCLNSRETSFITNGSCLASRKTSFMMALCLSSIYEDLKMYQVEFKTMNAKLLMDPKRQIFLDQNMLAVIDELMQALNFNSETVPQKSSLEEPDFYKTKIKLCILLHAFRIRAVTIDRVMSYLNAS
T1 sequence (looked up) 2: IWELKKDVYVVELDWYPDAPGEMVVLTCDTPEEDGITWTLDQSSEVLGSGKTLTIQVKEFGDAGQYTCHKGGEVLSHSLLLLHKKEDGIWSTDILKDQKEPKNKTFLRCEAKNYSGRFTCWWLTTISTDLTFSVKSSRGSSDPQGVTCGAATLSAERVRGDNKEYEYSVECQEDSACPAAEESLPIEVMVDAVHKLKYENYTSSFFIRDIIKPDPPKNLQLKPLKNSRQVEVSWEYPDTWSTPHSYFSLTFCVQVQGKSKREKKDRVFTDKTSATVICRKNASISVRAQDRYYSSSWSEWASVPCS

IL-23 p40-p19-His [1] = biological target: T2, IL-23 p40-p19-His (human); assay: ELISA on IL-23 p40-p19-His
T2 construct: Single-chain fusion coated on the IL-23 ELISA plates; also called p40:p19-6×HIS
T2 chain: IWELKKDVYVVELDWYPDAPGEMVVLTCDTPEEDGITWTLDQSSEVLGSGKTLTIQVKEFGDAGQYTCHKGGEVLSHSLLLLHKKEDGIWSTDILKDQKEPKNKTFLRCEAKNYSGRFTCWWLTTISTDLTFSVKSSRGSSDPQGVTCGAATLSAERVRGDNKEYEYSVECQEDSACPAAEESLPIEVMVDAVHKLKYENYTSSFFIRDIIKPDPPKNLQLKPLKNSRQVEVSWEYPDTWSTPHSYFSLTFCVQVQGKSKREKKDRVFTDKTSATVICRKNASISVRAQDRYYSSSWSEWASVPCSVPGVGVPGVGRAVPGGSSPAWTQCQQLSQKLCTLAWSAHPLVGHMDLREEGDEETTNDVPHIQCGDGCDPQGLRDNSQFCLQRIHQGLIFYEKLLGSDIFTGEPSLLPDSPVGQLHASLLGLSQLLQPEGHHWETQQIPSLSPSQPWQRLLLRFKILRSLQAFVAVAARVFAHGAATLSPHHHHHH

[2] = biological target: T3, human dimeric IL-23 (eBiosciences 34-8239) (human, UniProt P29460 23-328; Q9NPF7 20-189); assay: cell-based or functional assay
T3 sequence (looked up) 1: T1 sequence (looked up) 2
T3 sequence (looked up) 2: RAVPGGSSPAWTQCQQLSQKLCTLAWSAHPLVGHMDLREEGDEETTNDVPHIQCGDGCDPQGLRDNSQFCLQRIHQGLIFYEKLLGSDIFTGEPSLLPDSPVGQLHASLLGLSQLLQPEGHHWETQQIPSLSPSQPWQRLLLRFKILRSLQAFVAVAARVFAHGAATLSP

IL-23 p40-p19-His [3] = biological target: T2, IL-23 p40-p19-His; assay: ELISA on IL-23 p40-p19-His (coated directly or through anti-His)
Protocol: For the indirect binding method anti-His antibody (Cat # A00613, GenScript Corp., New Jersey, USA) was added to the plates in 100 μl/well of PBS at 0.01-0.02 ug/ml. Plates were incubated 1 hour at 37C, or overnight at 4C. To block non-specific binding 100 μl/well PBS containing 10% goat serum (Cat #16210-072, Invitrogen, USA) was added to each well, after which plates were rinsed 5 times with de-ionized water. IL-23 p40-p19-His (SEQ ID 4) in 100 μl/well PBS/10% goat serum at 0.5 μg/ml was added and incubated for 1 hour at room temperature.
For the direct binding method IL-23 p40-p19-His (SEQ ID 4) was added to an ELISA plate in 100 μl PBS at 0.5 μg/ml. Plates were incubated 1 hour at 37C, or overnight at 4C. To block non-specific binding 100 μl/well PBS containing 10% goat serum (Cat #16210-072, Invitrogen, USA) was added to each well. Plates were incubated 1 hour at room temperature.
After IL-23 binding, plates were rinsed 5 times with de-ionized water. To each well was added 50 μl PBS/10% goat serum. Test samples were then added at 50 μl/well. Plates were incubated 1 hour at room temperature and were rinsed 5 times with de-ionized water. To each well was added 100 μl peroxidase-conjugated goat anti-rabbit IgG (Cat. #111-035-008, Jackson Immuno Research) diluted 1:5000 in PBS/10% goat serum. Plates were incubated 1 hour at room temperature, then washed 5 times with de-ionized water. TMB substrate (Thermo Scientific, Rockford, Ill., USA) was added at 100 μl/well. The reaction was stopped with 100 μl N H₂SO₄ (JT Baker, Phillipsburg, N.J., USA). Absorbance was measured at 450 nm using a Molecular Devices M2 plate reader.

monkey IL-12 (macaque) [4] = biological target: T4, monkey IL-12 (macaque) (macaque, UniProt P48091 23-219; P48095 23-328); assay: cell-based or functional assay
T4 sequence (looked up) 1: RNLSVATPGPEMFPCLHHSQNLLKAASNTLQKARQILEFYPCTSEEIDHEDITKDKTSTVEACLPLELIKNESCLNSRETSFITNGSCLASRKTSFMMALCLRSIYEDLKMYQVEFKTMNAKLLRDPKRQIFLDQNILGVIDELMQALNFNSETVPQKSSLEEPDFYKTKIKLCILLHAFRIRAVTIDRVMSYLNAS
T4 sequence (looked up) 2: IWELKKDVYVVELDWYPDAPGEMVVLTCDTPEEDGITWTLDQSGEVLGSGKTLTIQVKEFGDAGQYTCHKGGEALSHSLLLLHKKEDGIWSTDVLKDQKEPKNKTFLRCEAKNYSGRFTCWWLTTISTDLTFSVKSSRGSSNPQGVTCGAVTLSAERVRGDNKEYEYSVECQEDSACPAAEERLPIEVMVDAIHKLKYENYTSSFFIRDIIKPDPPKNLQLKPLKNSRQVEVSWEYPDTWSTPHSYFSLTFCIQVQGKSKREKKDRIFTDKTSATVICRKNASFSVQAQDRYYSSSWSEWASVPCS

[5] = biological target: T3, human dimeric IL-23 (eBiosciences …); assay: cell-based or functional assay; remark: listed apart in the source
human IL-6 = human IL-6 (human, UniProt P05231 30-212); assay: cell-based or functional assay
3×FLAG-IL-6 = biological target: T5, 3×FLAG-IL-6 (human); assay: SPR, 3×FLAG-IL-6 captured by anti-FLAG M2 on protein G, bispecific as analyte
T5 construct: it may hold the pre-pro-trypsin leader
T5 sequence (chain, as listed by the source limits assumed): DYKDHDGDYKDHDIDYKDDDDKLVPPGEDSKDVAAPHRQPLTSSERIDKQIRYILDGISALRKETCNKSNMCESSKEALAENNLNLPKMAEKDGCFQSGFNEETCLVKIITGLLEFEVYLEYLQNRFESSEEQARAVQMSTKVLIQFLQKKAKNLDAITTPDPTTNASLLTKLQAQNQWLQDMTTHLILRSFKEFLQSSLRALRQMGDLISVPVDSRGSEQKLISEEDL

[6] = biological target: T3, human dimeric IL-23 (eBiosciences …); assay: SPR, bispecific held on captured IL-6 (~240 RU), human dimeric IL-23 as analyte (3-25 nM)
Protocol: SPR of bispecific scFvs were carried out as previously described for measuring the anti-IL-6 moiety; however, protocol modifications were required in order to determine the binding kinetics of the anti-IL-23 scFv, 31A12. Briefly, IL-23 binding by the bispecific was performed by first immobilizing the bispecific with IL-6 as described, but at a constant density (˜240 RU). Binding and dissociation of a recombinant human dimeric IL-23 (34-8239, eBiosciences, San Diego, Calif.) was assayed in concentrations ranging from 3 to 25 nM using the same parameters detailed above.

monkey IL-12 (macaque) [7] = biological target: T4, monkey IL-12 (macaque); assay: cell-based or functional assay; remark: listed apart in the source

IC50 (read off the curve) (interferon-gamma from NK92 cells, OD450) (human IL-12): ~2 ng/mL
binding result (IL-23 p40-p19-His [1]): binds
EC50: concentration necessary to inhibit bioactivity of 50 pg/ml of IL-6 [2]: 2.34 ng/mL
B1: 4F3 chimeric mAb (antibody, V domains shown)
VH: QSVEESGGRLVTPGTPLTLTCAVSGFSLSGYTMIWVRQAPGEGLEWIGIISSSGNTYYASWVKGRFTISKTSTTVDLKMISPTTEDTATYFCARGSGAYISDYFNVWGPGTLVTVSS
VL: FELTQTPSSVEAAVEGTVTIKCQASQSIDSWLSWYQQKPGQPPKLLIYSASKLAPGVPSRFSGSGSGTQFTLTIGDLECADAATYYCQSYYDVNAGYGFGGGTEVVVVR
notes: Rabbit/human chimeric IgG (human IgG1, kappa); HEK293; also called mAb 4F3

IC50 (read off the curve) (interferon-gamma from NK92 cells, OD450) (human IL-12): ~0.9 ng/mL
binding result (IL-23 p40-p19-His [1]): binds
EC50: concentration necessary to inhibit bioactivity of 50 pg/ml of IL-6 [2]: 1.91 ng/mL
B2: 5C5 chimeric mAb (antibody, V domains shown)
VH: QSVEESGGRLVTPGTPLTLTCTVSGFSLSSYTMIWVRQAPGEGLEWIGIISAGGSAYYASWVNGRFTISKTSTTVDLKMTSPTTGDTATYFCARGSGTYTSDYFNIWGPGTLVTVSS
VL: B1 VL with E15G, S33A, P55T, G75S, V93A, E104K
notes: Rabbit/human chimeric IgG (human IgG1, kappa); HEK293; also called mAb 5C5

binding result (IL-23 p40-p19-His [3]): binds
B3: 35H4 chimeric mAb (antibody, V domains shown)
VH: QSLEESGGRLVTPGGSLTLTCTVSGIDLSDYDMSWVRQAPGKGLEWIGIVYDIGTIYYAPWAEGRFTISKTSTTMDLKMSSLTTEDTATYFCATEAPGYSDGDIWGPGTLVTVSS
VL: LVMTQTPSSVSAAVGGTVTINCQASETVGNNNRLSWYQQKPGQPPKLLIYGAATLASGVPSRFKGSGSGAHFTLTISNVQREDVATYVCGGYKDSTDVGFGGGTELEILR
notes: Rabbit/human chimeric IgG (human IgG1, kappa); HEK293; also called 35H4 clone

IC50 (read off the curve) (monkey IL-12 (macaque) [4]): ~10 ng/mL and ~20 ng/mL
Anti IL-23 EC50, batch A [5]: 2.94 ng/mL
Anti IL-23 EC50, batch B [5]: 1.19 ng/mL
Anti IL-23 EC50, batch C [5]: 2.04 ng/mL
Anti IL-6 EC50, batch A (human IL-6): 0.082 ng/mL
Anti IL-6 EC50, batch B (human IL-6): 0.064 ng/mL
Anti IL-6 EC50, batch C (human IL-6): 0.136 ng/mL
Kd (3×FLAG-IL-6): 0.215 nM
koff (3×FLAG-IL-6): 5.14e-05 s⁻¹
kon (3×FLAG-IL-6): 290000 M⁻¹ s⁻¹
Kd [6]: 0.0918 nM
koff [6]: 7.11e-05 s⁻¹
kon [6]: 773000 M⁻¹ s⁻¹
IC50 (read off the curve) (interferon-gamma from NK92 cells, OD450) (monkey IL-12 (macaque) [7]): ~10 ng/mL
B4: 31A12c-PEG-13A8c bispecific (bispecific antibody)
scFv 1: DIQLTQSPSFLSASVGDRVTITCQASEDIESYLAWYQQKPGKAPKLLIYSASTLTSGVPSRFSGSGSGTEFTLTISSLQPEDFATYYCLGADDTTTVFGGGTKVEIKGGGGSGGGGSGGGGSGGGGSEVQLVESGGGLVQPGGSLRLSCTASGFSLSSYWLTWVRQAPGKGLEWVGTIATSSTYYASWAKGRFTISRDNSKNTLYLQLNSLRAEDTAVYYCARGLTTDYDLDLWGQGTLVTVSS
scFv 2: DIQLTQSPSFLSASVGDRVTITCQASQSISNELSWYQQKPGKAPKLLIYRASTLTSGVPSRFSGSGSGTEFTLTISSLQPEDFATYYCQQGYNSNDVDNVFGGGTKVEIKGGGGSGGGGSGGGGSGGGGSEVQLVESGGGLVQPGGSLRLSCTVSGIDLSSYDLSWVRQAPGKGLEWVGYIYTDSSTWYANWAKGRFTISRDNSKNTLYLQLNSLRAEDTAVYYCARGSTDYAFDTRLDLWGQGTLVTVSS
modifications: C-terminal azidohomoalanine (Aha) joined through a linear 20 kDa PEG to the Aha of the other scFv
notes: also called 31A12c-20KPEG-13A8c; 13A8c-PEG-31A12c

binding result (IL-23 p40-p19-His [3]): binds
EC50, inhibition of IL-23 induced IL-17 secretion by mouse spleen cells [2]: 0.219 ng/mL
B5: 16C6 chimeric mAb (antibody, V domains shown)
VH: QSVEESGGRLVTPGTPLTLTCTVSGFSLNSYSMSWVRQAPGKGLEWIGVIGLGGSAYYASWAKGRFTISGASTTVDLKITSPTTEDTATYFCARATYSDDNIWGPGTLVTVSS
VL: DVVMTQTPSSTSAAVGGTVTIKCQASQSISSWLSWYQQKPGQRPKPLIVRASTLASGVPSRFKGNRSGTEYTLTISGVQREDAAAYYCLGGDGNVSNFGGGTKVVVVR
notes: Rabbit/human chimeric IgG (human IgG1, kappa); HEK293

binding result (IL-23 p40-p19-His [3]): binds
EC50, inhibition of IL-23 induced IL-17 secretion by mouse spleen cells [2]: 0.05 ng/mL
B6: 34E11 chimeric mAb (antibody, V domains shown)
VH: QEQLKESGGGLVTPGGSLTLTCTVSGFSLSTYDINWVRQAPGKGLEWIGYIYRGSPYYADWAKGRFTISSTSTTVGLKITSPTTVDTATYFCTRNLYSVNVLWGPGTLVTVS
VL: LVMTQTPSSTSAAVGDTVTIKCQASQSISSRLAWYQQKPGQPPKLLIYSASTLASGVPSRFKGSGSGTDYTLTISGVQREDAATYYCLGSYSNTIRTFGAGTKVEIKR
notes: Rabbit/human chimeric IgG (human IgG1, kappa); HEK293; also called 34E11 clone
